Among the data in publication PMC5492076, “β-Cyanoalanine Synthases and Their Possible Role in Pierid Host Plant Adaptation” (Insects, 2017) are Km and Vmax values, retold here.

Substrate in the data set: N[C@@H](CS)C(=O)O
The data set is described as follows: colorimetric sulfide formation, Michaelis-Menten fit. The format is biochemical, Aporia crataegi. The following applies: 6 mM KCN, 20 µM pyridoxal-5'-phosphate, Tris-HCl pH 8.5, 31 °C, 10 min. An excerpt: colorimetric sulfide formation, Michaelis-Menten fit on AcrBSAS3

B1: AcrBSAS3 (Aporia crataegi) (protein)
chain: MTNAISVSNEIKASALELIGNTPLLALDRLHPGPGRILVKCEFMNPGGSLKCRSSLHMIQKARERGELKPGGDVVEVTSGNQGCGLGVVCSVLGHPLTVTMSKGNSIQRALHMEALGAKCIRYPLVKGTYGNVTFADVEPALEGAMKMSEETGAFFVKQMANPDNIEAHYETTGPEIWRQSGHRVDAFVTAVGTSGTFTGVSKYLKEQNPEIQCFVVEPEGSQPLKGCPITKPLHMLQGASYGVVPDLFNPDLMEDSISVTDEESVHYKDLLGTKEGLFVGYTSGANVAAAVKLLNSGKLPKDAWVVTILSDTGLKYTPVPDNLIE
notes: N-terminal Strep-tag, E. coli BL21(DE3) pLysS; Strep-Tactin purified
As for B1, the Km is 1.31 (±0.08) mM and the Vmax turned out to be 1.12 µmol/min/mg.

For orientation: Vmax means the rate approached at saturating substrate.
